Data: US20250019440A1 (Zymeworks, published 2025)

B1: v35777 (antibody, human IgG1, V domains shown)
VH: QSLEESGGRLVTPGTPLTLTCTVSGIDLSSNPMIWVRQAPGKGLQYIGIIDTDGSTYYASWAKGRFTGSKTSTTVDLKITSPTTEDTATYFCARRLHGSSNGYYDDLWGQGTLVTISS
VL: DGVMTQTPSSVSAAVGGTVTIKCQASQSIYSYLSWYQQKPGQRPKLLIYKASTLASGVPSRFKGSGSGTEFTLTISGVQCDDAATYYCQQGYTVTNVDKNTFGGGTEVVVK
notes: Rabbit variable regions on human IgG1 (constant region starts at alanine Kabat-114) and human C kappa (starts at arginine Kabat-108); also called parental rabbit chimeric; rabbit-human chimeric IgG1/kappa antibody construct
B2: v38737 (other)
heavy 1: EVQLVESGGGLVQPGGSLRLSCAASGVTFNYYGMSWIRQAPGKGLEWVASITSSGGRIYYPDSVKGRFTISRENTQKTLYLQMNSLRAEDTAVYYCTLDGRDGWVAYWGQGTLVTVSSASTKGPSVFPLAPSSKSTSGGTAALGCLVKDYFPEPVTVSWNSGALTSGVHTFPAVLQSSGLYSLSSVVTVPSSSLGTQTYICNVNHKPSNTKVDKKVEPKSCDKTHTCPPCPAPEAAGGPSVFLFPPKPKDTLMISRTPEVTCVVVSVSHEDPEVKFNWYVDGVEVHNAKTKPREEQYNSTYRVVSVLTVLHQDWLNGKEYKCKVSNKALPAPIEKTISKAKGQPREPQVYVYPPSRDELTKNQVSLTCLVKGFYPSDIAVEWESNGQPENNYKTTPPVLDSDGSFALVSKLTVDKSRWQQGNVFSCSVMHEALHNHYTQKSLSLSPGGGGGSGDRPWNPPTFSPALLVVTEGDNATFTCSFSNTSESFRLVWHRESPGYETDTLASFPEDRSTPLPDARFRVTQLPNGRDFHMSVVRARRNDSGTYVCGAIAFHPVIQIKESLRAELRVTE
light: NFMLTQPHSVSESPGKTVTISCKRNTGNIGSNYVNWYQQHEGSSPTTIIYRNDKRPDGVSDRFSGSIDRSSKSASLTISNLKTEDEADYFCQSYSSGFIFGGGTKLTVLGQPKAAPSVTLFPPSSEELQANKATLVCLISDFYPGAVTVAWKADSSPVKAGVETTTPSKQSNNKYAASSYLSLTPEQWKSHRSYSCQVTHEGSTVEKTVAPTECS
heavy 2: QVQLVESGGGLVQPGGSLRLSCSVSGIDLSSNPMIWVRQAPGKGLQYIGIIDTDGSTYYADWAKGRFTISKDSTTVYLQINSPRAEDTAVYYCARRLHGSSNGYYDDLWGQGTLVTVSSGGGGSGGGGSGGGGSGGGGSDGQMTQSPSSVSASVGDRVTITCQASQSIYSYLSWYQQKPGQRPKLLIYKASTLASGVPSRFSGSGSGTDFTLTISSVQPEDFATYYCQQGYTVTNVDKNTFGGGTKVEIKAAEPKSSDKTHTCPPCPAPEAAGGPSVFLFPPKPKDTLMISRTPEVTCVVVSVSHEDPEVKFNWYVDGVEVHNAKTKPREEQYNSTYRVVSVLTVLHQDWLNGKEYKCKVSNKALPAPIEKTISKAKGQPREPQVYVLPPSRDELTKNQVSLLCLVKGFYPSDIAVEWESNGQPENNYLTWPPVLDSDGSFFLYSKLTVDKSRWQQGNVFSCSVMHEALHNHYTQKSLSLSPG
B3: v38739 (other)
heavy 1: EVQLVESGGGLVQPGGSLRLSCAASGVTFNYYGMSWIRQAPGKGLEWVASITSSGGRIYYPDSVKGRFTISRENTQKTLYLQMNSLRAEDTAVYYCTLDGRDGWVAYWGQGTLVTVSSASTKGPSVFPLAPSSKSTSGGTAALGCLVKDYFPEPVTVSWNSGALTSGVHTFPAVLQSSGLYSLSSVVTVPSSSLGTQTYICNVNHKPSNTKVDKKVEPKSCDKTHTCPPCPAPEAAGGPSVFLFPPKPKDTLMISRTPEVTCVVVSVSHEDPEVKFNWYVDGVEVHNAKTKPREEQYNSTYRVVSVLTVLHQDWLNGKEYKCKVSNKALPAPIEKTISKAKGQPREPQVYVYPPSRDELTKNQVSLTCLVKGFYPSDIAVEWESNGQPENNYKTTPPVLDSDGSFALVSKLTVDKSRWQQGNVFSCSVMHEALHNHYTQKSLSLSPGGGGGSGDRPWNPPTFSPALLVVTEGDNATFTCSFSNTSESFVLNWYRMSPSNQTDKLAAFPEDRSQPGQDARFRVTQLPNGRDFHMSVVRARRNDSGTYLCGAISLAPKLQIKESLRAELRVTE
light: B2 light
heavy 2: B2 heavy 2

Key:
Human CLDN18.2 = biological target: T1, Human CLDN18.2 (human); assay: FACS on transfected HEK293-6E cells, 4 parameter logistic fit
T1 construct: On transfected HEK293-6E cells; also called Claudin18.2

Mouse CLDN18 A2.1 = biological target: T2, Mouse CLDN18 A2.1 (mouse, UniProt P56857 10-264); assay: as above
T2 construct: On transfected HEK293-6E cells; also called Mouse CLDN18 2.1; mouse CLDN18.2 ortholog
T2 chain: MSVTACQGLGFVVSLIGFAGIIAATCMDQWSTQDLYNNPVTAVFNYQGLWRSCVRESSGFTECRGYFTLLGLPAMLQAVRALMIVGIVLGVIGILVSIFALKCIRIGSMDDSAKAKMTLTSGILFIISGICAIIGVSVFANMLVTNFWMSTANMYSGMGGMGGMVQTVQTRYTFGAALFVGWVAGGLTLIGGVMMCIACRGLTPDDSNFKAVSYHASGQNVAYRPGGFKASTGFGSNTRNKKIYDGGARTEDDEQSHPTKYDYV

Cynomolgus monkey CLDN18 = biological target: T3, Cynomolgus monkey CLDN18 (cynomolgus monkey); assay: as above
T3 construct: On transfected HEK293-6E cells; also called Cyno CLDN18; cynomologus monkey CLDN18.2 ortholog
T3 chain: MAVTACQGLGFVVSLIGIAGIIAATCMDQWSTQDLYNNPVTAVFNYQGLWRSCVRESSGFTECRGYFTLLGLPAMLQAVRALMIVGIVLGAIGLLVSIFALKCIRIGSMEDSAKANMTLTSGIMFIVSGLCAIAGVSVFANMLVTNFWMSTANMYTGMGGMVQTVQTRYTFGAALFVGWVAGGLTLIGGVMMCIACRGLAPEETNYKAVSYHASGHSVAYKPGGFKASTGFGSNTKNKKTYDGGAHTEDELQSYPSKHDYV

Human CLDN18.1 = biological target: T4, Human CLDN18.1 (human, UniProt P56856 1-261); assay: flow cytometry, purified construct on transfected HEK293-6E cells
T4 construct: On transfected HEK293-6E cells

PD-L1 on cells = PD-L1 on cells (UniProt Q9NZQ7 19-290, limits assumed); assay: cell-based or functional assay
Human CD3 (recombinant) = Human CD3 (recombinant) (human); assay: SPR, CD3 amine-coupled, variant as analyte, 1:1 model
Human PD-L1 [1] = biological target: T5, Human PD-L1 (human, UniProt Q9NZQ7 19-239); assay: SPR, PD-L1 amine-coupled, variant as analyte, 1:1 model; third of three variants in the merged cell (G1 4-1 PD-1)
T5 construct: Amine-coupled to a CM5 chip for SPR; also called recombinant human PD-L1

Human PD-L1 [2] = biological target: T5, Human PD-L1; assay: SPR, PD-L1 amine-coupled, variant as analyte, 1:1 model
Human PD-L2 = biological target: T6, Human PD-L2 (human, UniProt Q9BQ51 20-219); assay: SPR, PD-L2 amine-coupled, variant as analyte, 1:1 model
T6 construct: Amine-coupled to a CM5 chip for SPR; also called recombinant PD-L2
T6 sequence (looked up): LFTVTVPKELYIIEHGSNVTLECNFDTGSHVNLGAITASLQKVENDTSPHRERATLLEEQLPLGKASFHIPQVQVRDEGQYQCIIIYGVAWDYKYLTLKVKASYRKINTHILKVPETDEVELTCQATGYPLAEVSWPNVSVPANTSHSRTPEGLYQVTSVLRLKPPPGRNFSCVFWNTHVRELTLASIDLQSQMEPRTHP

Human PD-L1 [3] = biological target: T5, Human PD-L1; assay: SPR, PD-L1 amine-coupled, variant as analyte, 1:1 model; remark: listed apart in the source

T5 sequence (Q9NZQ7 19-239 limits assumed): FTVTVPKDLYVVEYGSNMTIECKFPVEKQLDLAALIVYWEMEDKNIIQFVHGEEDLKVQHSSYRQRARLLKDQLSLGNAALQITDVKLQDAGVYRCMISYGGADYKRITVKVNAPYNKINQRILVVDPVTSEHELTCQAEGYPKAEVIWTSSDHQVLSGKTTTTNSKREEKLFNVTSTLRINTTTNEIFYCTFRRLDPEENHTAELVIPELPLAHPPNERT
Chain of Human CD3 (recombinant) (human) (chain, as listed by the source): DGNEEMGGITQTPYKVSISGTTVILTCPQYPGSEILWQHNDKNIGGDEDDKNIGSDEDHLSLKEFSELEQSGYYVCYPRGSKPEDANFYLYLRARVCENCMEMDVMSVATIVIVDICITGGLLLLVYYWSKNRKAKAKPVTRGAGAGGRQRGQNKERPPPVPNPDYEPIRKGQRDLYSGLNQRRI
Chain of PD-L1 on cells (Q9NZQ7 19-290 limits assumed): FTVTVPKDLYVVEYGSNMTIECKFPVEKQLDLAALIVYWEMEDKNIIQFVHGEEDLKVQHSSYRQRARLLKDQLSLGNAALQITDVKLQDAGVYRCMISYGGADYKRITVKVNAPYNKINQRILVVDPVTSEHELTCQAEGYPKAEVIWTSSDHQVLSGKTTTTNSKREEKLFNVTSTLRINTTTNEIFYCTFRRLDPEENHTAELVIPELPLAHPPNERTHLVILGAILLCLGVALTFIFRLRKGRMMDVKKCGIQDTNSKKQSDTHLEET
T4 sequence (P56856 whole entry): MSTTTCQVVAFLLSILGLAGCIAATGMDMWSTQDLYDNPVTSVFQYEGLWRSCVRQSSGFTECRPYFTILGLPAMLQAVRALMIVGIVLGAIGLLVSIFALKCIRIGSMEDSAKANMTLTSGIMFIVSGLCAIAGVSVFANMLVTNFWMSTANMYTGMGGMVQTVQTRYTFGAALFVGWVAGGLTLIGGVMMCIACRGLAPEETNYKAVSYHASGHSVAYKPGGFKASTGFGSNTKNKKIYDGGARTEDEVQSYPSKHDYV

| Bmax (Human CLDN18.2) | EC50 (Human CLDN18.2) [nM] | Bmax (Mouse CLDN18 A2.1) | EC50 (Mouse CLDN18 A2.1) [nM] | Bmax (Cynomolgus monkey CLDN18) | EC50 (Cynomolgus monkey CLDN18) [nM] | binding result (Human CLDN18.1) | EC50 (read off the curve); hybrid PD-1/PD-L1 reporter gene assay, delta RLU, PD-1+ Jurkat T cells with SNU-620 cells, top left graph; composite signal of CD3 engagement and PD-1:PD-L1 blockade (PD-L1 on cells) [nM] | Kd (Human CD3 (recombinant)) [nM] | Kd (Human PD-L1 [1]) [nM] | Kd (Human PD-L1 [2]) [nM] | Kd (Human PD-L2) [nM] | Kd (Human PD-L1 [3]) [nM] | Binder |
| --- | --- | --- | --- | --- | --- | --- | --- | --- | --- | --- | --- | --- | --- |
| 2070 | 1.29 | 1640 | 0.87 | 1660 | 0.48 | no binding |  |  |  |  |  |  | B1 |
|  |  |  |  |  |  |  | ~0.5 | 3.5 | 280 |  |  |  | B2 |
|  |  |  |  |  |  |  |  | 39 |  | 110 | 230 | 310 | B3 |
